Assay results taken from US20060257938A1, “Method of screening for drugs that block ligand binding to a lipid binding protein” (priority 2005, published 2006).
Numbering of substitutions follows the chain as printed. Several values for one entry are separate records, joined by “and”; a condition that tells them apart may be missing. Equal values may be shown once.

B1: 23W1, 72A (protein, listed as Rattus norvegicus)
chain: AFDGTWKVDRNENYEKFMEKMGWNVVKRKLGAHDNLKLTITQEGNKFTVKESSNFRNIDVVFELGVDFAYSAADGTELTGTWTMEGNKLVGKFKRVDNGKELIAVREISGNELIQTYTYEGVEAKRIFKKE
modifications: PEPTIDE (1)...(131) wild-type rat intestinal fatty acid binding protein
B2: 31R1, 72A (protein, listed as Rattus norvegicus)
chain: B1 chain with W23I, G31R
modifications: PEPTIDE (1)...(131) wild-type rat intestinal fatty acid binding protein
B3: 31M2, 72A (protein, listed as Rattus norvegicus)
chain: B1 chain with W23I, G31M
modifications: PEPTIDE (1)...(131) wild-type rat intestinal fatty acid binding protein
B4: 34C, 72A (protein, listed as Rattus norvegicus)
chain: B1 chain with W23I, D34C
modifications: PEPTIDE (1)...(131) wild-type rat intestinal fatty acid binding protein
B5: 31N2, 72A (protein, listed as Rattus norvegicus)
chain: B1 chain with W23I, G31N
modifications: PEPTIDE (1)...(131) wild-type rat intestinal fatty acid binding protein
B6: 34A, 72A (protein, listed as Rattus norvegicus)
chain: B1 chain with W23I, D34A
modifications: PEPTIDE (1)...(131) wild-type rat intestinal fatty acid binding protein
B7: 31I1, 72A (protein, listed as Rattus norvegicus)
chain: B1 chain with W23I, G31I
modifications: PEPTIDE (1)...(131) wild-type rat intestinal fatty acid binding protein
B8: 31K2, 72A (protein, listed as Rattus norvegicus)
chain: B1 chain with W23I, G31K
modifications: PEPTIDE (1)...(131) wild-type rat intestinal fatty acid binding protein
B9: 31Y2, 72A (protein, listed as Rattus norvegicus)
chain: B1 chain with W23I, G31Y
modifications: PEPTIDE (1)...(131) wild-type rat intestinal fatty acid binding protein
B10: 31Q3, 72A (protein, listed as Rattus norvegicus)
chain: B1 chain with W23I, G31Q
modifications: PEPTIDE (1)...(131) wild-type rat intestinal fatty acid binding protein
B11: 31E3, 72A (protein, listed as Rattus norvegicus)
chain: B1 chain with W23I, G31E
modifications: PEPTIDE (1)...(131) wild-type rat intestinal fatty acid binding protein
B12: 31W2, 72A (protein, listed as Rattus norvegicus)
chain: B1 chain with W23I, G31W
modifications: PEPTIDE (1)...(131) wild-type rat intestinal fatty acid binding protein
B13: 34H, 72A (protein, listed as Rattus norvegicus)
chain: B1 chain with W23I, D34H
modifications: PEPTIDE (1)...(131) wild-type rat intestinal fatty acid binding protein
B14: 31T2, 72A (protein, listed as Rattus norvegicus)
chain: B1 chain with W23I, G31T
modifications: PEPTIDE (1)...(131) wild-type rat intestinal fatty acid binding protein
B15: 31V2, 72A (protein, listed as Rattus norvegicus)
chain: B1 chain with W23I, G31V
modifications: PEPTIDE (1)...(131) wild-type rat intestinal fatty acid binding protein
B16: 31D2, 72A (protein, listed as Rattus norvegicus)
chain: B1 chain with W23I, G31D
modifications: PEPTIDE (1)...(131) wild-type rat intestinal fatty acid binding protein
B17: 31Y1, 72A (protein, listed as Rattus norvegicus)
chain: B1 chain with W23I, G31Y
modifications: PEPTIDE (1)...(131) wild-type rat intestinal fatty acid binding protein
B18: 34G, 72A (protein, listed as Rattus norvegicus)
chain: B1 chain with W23I, D34G
modifications: PEPTIDE (1)...(131) wild-type rat intestinal fatty acid binding protein
B19: 34E, 72A (protein, listed as Rattus norvegicus)
chain: B1 chain with W23I, D34E
modifications: PEPTIDE (1)...(131) wild-type rat intestinal fatty acid binding protein
B20: 23Y1, 72A (protein, listed as Rattus norvegicus)
chain: B1 chain with W23Y
modifications: PEPTIDE (1)...(131) wild-type rat intestinal fatty acid binding protein
B21: 31P1, 72A (protein, listed as Rattus norvegicus)
chain: B1 chain with W23I, G31P
modifications: PEPTIDE (1)...(131) wild-type rat intestinal fatty acid binding protein
B22: 31C1, 72A (protein, listed as Rattus norvegicus)
chain: B1 chain with W23I, G31C
modifications: PEPTIDE (1)...(131) wild-type rat intestinal fatty acid binding protein
B23: 31F2, 72A (protein, listed as Rattus norvegicus)
chain: B1 chain with W23I, G31F
modifications: PEPTIDE (1)...(131) wild-type rat intestinal fatty acid binding protein

experiment: Probe fluorescence ratio response to arachidonic acid relative to ADIFAB2; format: binding; conditions: arachidonic acid; response relative to ADIFAB2
Outline: (§1)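 Fluorescently labeled rat intestinal FABP variants were read at two emission wavelengths, near the unbound maximum (about 420 to 480 nm) and the FFA-bound maximum (about 495 to 580 nm). R = Fλ1/Fλ2 after subtracting probe-free intensity; ΔR = R+agent − R0, normalized to ADIFAB2 (rI-FABP-L72A).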

Row | Molecule | DR/DR AA
1 | B1 | 0.62
2 | B2 | 0.25
3 | B3 | 0.52
4 | B4 | 0.34
5 | B5 | 0.88
6 | B6 | 0.58
7 | B7 | 0.30
8 | B8 | 0.85
9 | B9 | 0.37
10 | B10 | 1.02
11 | B11 | 0.55
12 | B12 | 0.99
13 | B13 | 0.65
14 | B14 | 0.65
15 | B15 | 0.40
16 | B16 | 0.20
17 | B17 | 1.78
18 | B18 | 0.54
19 | B19 | 0.62 and 0.618
20 | B20 | 0.49
21 | B21 | 0.25
22 | B22 | 0.32
23 | B23 | 1.41

experiment: Probe fluorescence ratio response to linolenic acid relative to ADIFAB2; format: binding; conditions: response relative to ADIFAB2
Outline: as §1

Row | Molecule | DR/DR LNA
24 | B1 | 0.96
25 | B2 | 0.44
26 | B3 | 0.57
27 | B4 | 0.33
28 | B5 | 1.06
29 | B6 | 0.57
30 | B7 | 0.41
31 | B8 | 0.90
32 | B9 | 0.80
33 | B10 | 1.49
34 | B11 | 0.82
35 | B12 | 1.03
36 | B13 | 0.72
37 | B14 | 0.91
38 | B15 | 0.78
39 | B16 | 0.14
40 | B17 | 1.61
41 | B18 | 0.29
42 | B19 | 0.57 and 0.571
43 | B20 | 0.44
44 | B21 | 0.27
45 | B22 | 0.36
46 | B23 | 1.62

experiment: Probe fluorescence ratio response to palmitic acid relative to ADIFAB2; format: binding; conditions: response relative to ADIFAB2
Outline: as §1

Row | Molecule | DR/DR PA
47 | B1 | 0.49
48 | B2 | 0.34
49 | B3 | 0.46
50 | B4 | 0.18
51 | B5 | 0.50
52 | B6 | 0.33
53 | B7 | 0.09
54 | B8 | 0.42
55 | B9 | 0.17
56 | B10 | 1.04
57 | B11 | 0.38
58 | B12 | 0.62
59 | B13 | 0.38
60 | B14 | 0.41
61 | B15 | 0.21
62 | B16 | 0.06
63 | B17 | 1.10
64 | B18 | 0.18
65 | B19 | 0.48 and 0.482
66 | B20 | 0.28
67 | B21 | 0.23
68 | B22 | 0.23
69 | B23 | 1.21

experiment: Probe fluorescence ratio response to oleic acid relative to ADIFAB2; format: binding; conditions: response relative to ADIFAB2
Outline: as §1

Row | Molecule | DR/DR OA
70 | B1 | 0.45
71 | B2 | 0.23
72 | B3 | 1.08
73 | B4 | 0.30
74 | B5 | 0.91
75 | B6 | 0.49
76 | B7 | −0.21
77 | B8 | 0.97
78 | B9 | 0.01
79 | B10 | 1.31
80 | B11 | 0.50
81 | B12 | 0.87
82 | B13 | 0.52
83 | B14 | 0.53
84 | B15 | 0.08
85 | B16 | 0.13
86 | B17 | 1.55
87 | B18 | 0.13
88 | B19 | 0.49 and 0.486
89 | B20 | 0.41
90 | B21 | 0.22
91 | B22 | 0.30
92 | B23 | 1.43

experiment: Probe fluorescence ratio response to linoleic acid relative to ADIFAB2; format: binding; conditions: response relative to ADIFAB2
Outline: as §1

Row | Molecule | DR/DR LA
93 | B1 | 0.79
94 | B2 | 0.40
95 | B3 | 0.41
96 | B4 | 0.59
97 | B5 | 1.04
98 | B6 | 0.57
99 | B7 | 0.17
100 | B8 | 0.91
101 | B9 | 0.36
102 | B10 | 1.47
103 | B11 | 0.74
104 | B12 | 1.15
105 | B13 | 0.74
106 | B14 | 0.75
107 | B15 | 0.38
108 | B16 | 0.16
109 | B17 | 1.75
110 | B18 | 0.33
111 | B19 | 0.60 and 0.604
112 | B20 | 0.44
113 | B21 | 0.30
114 | B22 | 0.36
115 | B23 | 1.76
